The values that follow come from publication PMC2661055, “The C-terminal sequence of the large hepatitis delta antigen is variable but retains the ability to bind clathrin” (Virology Journal, 2009).

B1: GST-LDIII_(C(198–210)) (GST fused to amino acids 198-210 of genotype III LDAg) (domain or fragment)
chain: FTPPPPGYYWVPG
notes: amino acids 198-210 of the large delta antigen of HDV genotype III, Peru-1 strain, GenBank L22063; Inserted downstream of GST in pGEX-4T1 by EcoRI and SalI; also called 13-amino-acid peptide of genotype III LDAg; source: E. coli BL21 (DE3), purified (glutathione beads); not shown: GST, N-terminal, kept
B2: 6XHis-CHC_((1–107)) (hexahistidine-tagged fragment, amino acids 1 to 107, of human clathrin heavy chain) (domain or fragment, UniProt Q00610 1-107, looked up)
chain: MAQILPIRFQEHLQLQNLGINPANIGFSTLTMESDKFICIREKVGEQAQVVIIDMNDPSNPIRRPISADSAIMNPASKVIALKAGKTLQIFNIEMKSKMKAHTMTDD
notes: human clathrin heavy chain, amino acids 1 to 107, cDNA amplified by RT-PCR and inserted downstream of the hexahistidine tag of pET-15b; also called fragment of CHC; 107-amino-acid peptide of CHC; source: E. coli BL21 (DE3), purified (nickel beads); not shown: His6, N-terminal, kept
B3: clathrin heavy chain (full-length, endogenous in HuH-7 cells) (natural protein, human (endogenous in HuH-7), UniProt Q00610 1-1675, looked up)
chain: MAQILPIRFQEHLQLQNLGINPANIGFSTLTMESDKFICIREKVGEQAQVVIIDMNDPSNPIRRPISADSAIMNPASKVIALKAGKTLQIFNIEMKSKMKAHTMTDDVTFWKWISLNTVALVTDNAVYHWSMEGESQPVKMFDRHSSLAGCQIINYRTDAKQKWLLLTGISAQQNRVVGAMQLYSVDRKVSQPIEGHAASFAQFKMEGNAEESTLFCFAVRGQAGGKLHIIEVGTPPTGNQPFPKKAVDVFFPPEAQNDFPVAMQISEKHDVVFLITKYGYIHLYDLETGTCIYMNRISGETIFVTAPHEATAGIIGVNRKGQVLSVCVEEENIIPYITNVLQNPDLALRMAVRNNLAGAEELFARKFNALFAQGNYSEAAKVAANAPKGILRTPDTIRRFQSVPAQPGQTSPLLQYFGILLDQGQLNKYESLELCRPVLQQGRKQLLEKWLKEDKLECSEELGDLVKSVDPTLALSVYLRANVPNKVIQCFAETGQVQKIVLYAKKVGYTPDWIFLLRNVMRISPDQGQQFAQMLVQDEEPLADITQIVDVFMEYNLIQQCTAFLLDALKNNRPSEGPLQTRLLEMNLMHAPQVADAILGNQMFTHYDRAHIAQLCEKAGLLQRALEHFTDLYDIKRAVVHTHLLNPEWLVNYFGSLSVEDSLECLRAMLSANIRQNLQICVQVASKYHEQLSTQSLIELFESFKSFEGLFYFLGSIVNFSQDPDVHFKYIQAACKTGQIKEVERICRESNCYDPERVKNFLKEAKLTDQLPLIIVCDRFDFVHDLVLYLYRNNLQKYIEIYVQKVNPSRLPVVIGGLLDVDCSEDVIKNLILVVRGQFSTDELVAEVEKRNRLKLLLPWLEARIHEGCEEPATHNALAKIYIDSNNNPERFLRENPYYDSRVVGKYCEKRDPHLACVAYERGQCDLELINVCNENSLFKSLSRYLVRRKDPELWGSVLLESNPYRRPLIDQVVQTALSETQDPEEVSVTVKAFMTADLPNELIELLEKIVLDNSVFSEHRNLQNLLILTAIKADRTRVMEYINRLDNYDAPDIANIAISNELFEEAFAIFRKFDVNTSAVQVLIEHIGNLDRAYEFAERCNEPAVWSQLAKAQLQKGMVKEAIDSYIKADDPSSYMEVVQAANTSGNWEELVKYLQMARKKARESYVETELIFALAKTNRLAELEEFINGPNNAHIQQVGDRCYDEKMYDAAKLLYNNVSNFGRLASTLVHLGEYQAAVDGARKANSTRTWKEVCFACVDGKEFRLAQMCGLHIVVHADELEELINYYQDRGYFEELITMLEAALGLERAHMGMFTELAILYSKFKPQKMREHLELFWSRVNIPKVLRAAEQAHLWAELVFLYDKYEEYDNAIITMMNHPTDAWKEGQFKDIITKVANVELYYRAIQFYLEFKPLLLNDLLMVLSPRLDHTRAVNYFSKVKQLPLVKPYLRSVQNHNNKSVNESLNNLFITEEDYQALRTSIDAYDNFDNISLAQRLEKHELIEFRRIAAYLFKGNNRWKQSVELCKKDSLYKDAMQYASESKDTELAEELLQWFLQEEKRECFGACLFTCYDLLRPDVVLETAWRHNIMDFAMPYFIQVMKEYLTKVDKLDASESLRKEEEQATETQPIVYGQPQLMLTAGPSVAVPPQAPFGYGYTAPPYGQPQPGFGYSM
notes: clathrin heavy chain, endogenous in the human hepatoma cell line HuH-7, detected with anti-clathrin heavy chain; also called CHC; source: endogenous, HuH-7 lysate

For experiment [1], the target named is EGFP-LDIII (EGFP fused to full-length large hepatitis delta antigen of HDV genotype III, Peru-1 strain) (hepatitis delta virus genotype III (Peru-1 strain)). The experiment is described as follows: co-IP; HuH-7 cells transfected with pEGFP-C3 or pEGFP-LD plasmids, TNF-α (30 ng/ml) for 2 h at 24 h post-transfection; lysate precipitated with anti-GFP, blot for CHC; CHC normalised to actin, genotype I set to 1, mean of three experiments.

The target of experiment [2] is EGFP-LDII (EGFP fused to full-length large hepatitis delta antigen of HDV genotype II, Taiwan-3 strain) (hepatitis delta virus genotype II (Taiwan-3 strain)). Described as above.
Experiment [3] deals with B2. The experiment is described as follows: pull-down; GST or GST-LD_(C(198–210)) on Glutathione Sepharose 4B beads incubated with E. coli produced, purified 6XHis-CHC_((1–107)) for 16 h at 4°C; three washes with 0.05% Tween-20 in PBS; SDS-PAGE, silver stain; mean of three experiments. The following applies: both partners purified.
Experiment [4] concerns the target B1. The experiment is described as above. To be noted: both partners purified.
The target in experiment [5] is T1, GST-LDII_(C(198–210)) (GST fused to amino acids 198-210 of genotype II LDAg) (hepatitis delta virus genotype II …).
T1 construct: amino acids 198-210 of the large delta antigen of HDV genotype II, Taiwan-3 strain, GenBank U19598; Inserted downstream of GST in pGEX-4T1 by EcoRI and SalI; also called 13-amino-acid peptide of genotype II LDAg; source: E. coli BL21 (DE3), purified (glutathione beads); not shown: GST, N-terminal, kept
T1 chain: GPSPPQQRLPLLE
The experiment is described as above. The following applies: both partners purified.

For experiment [6], the target named is B1. The experiment is described as follows: pull-down; GST or GST-LD_(C(198–210)) on Glutathione Sepharose 4B beads incubated with HuH-7 cell lysate for 16 h at 4°C; three washes with 0.05% Tween-20 in PBS; blot for CHC; mean of three experiments. The following applies: one partner purified.
The target in experiment [7] is T1, GST-LDII_(C(198–210)) (GST fused to …). The experiment is described as above. The following applies: one partner purified.

For the molecule “clathrin heavy chain (full-length, endogenous in HuH-7 cells) (from UniProt Q00610 1-1675) (natural protein)”, the amount of CHC co-precipitated, ratio to EGFP-LDI (fold of EGFP-LDI) in experiment [1] amounted to 2.2; in experiment [2], 2.6. Take B1: the binding result in experiment [3] is given as “binds”. As to B2, the “amount of CHC fragment pulled down, ratio to GST-LDI_(C(198–210))” value in experiment [4] was 0.7 fold of GST-LDI_(C(198–210)); in experiment [5], 1.4 fold of GST-LDI_(C(198–210)). As for B3, the figures for the “normalized amount of CHC bound, ratio to genotype I” value in experiment [6] and in experiment [7] were 1.3 fold of genotype I and 1.6 fold of genotype I, respectively.
